US20250009852A1, “DEPLETING EGFR AND HER2 OVERCOMES RESISTANCE TO EGFR INHIBITORS IN COLORECTAL CANCER” (Health Research, Inc., priority 2021, published 2025)

B1: PEPD^G278D: recombinant and enzymatically inactive mutant of human peptidase D (PEPD), with replacement of glycine 278 by aspartic acid (protein)
chain: AAATGPSFWLGNETLKVPLALFALNRQRLCERLRKNPAVQAGSIVVLQGGEETQRYCTDTGVLFLQESFFHWAFGVTEPGCYGVIDVDTGKSTLFVPRLPASHATWMGKIHSKEHFKEKYAVDDVQYVDEIASVLTSQKPSVLLTLRGVNTDSGSVCREASFDGISKFEVNNTILHPEIVESRVFKTDMELEVLRYTNKISSEAHREVMKAVKVGMKEYGLESLFEHYCYSRGGMRHSSYTCICGSGENSAVLHYGHAGAPNDRTIQNGDMCLFDMDGEYYSVASDITCSFPRNGKFTADQKAVYEAVLLSSRAVMGAMKPGDWWPDIDRLADRIHLEELAHMGILSGSVDAMVQAHLGAVFMPHGLGHFLGIDVHDVGGYPEGVERIDEPGLRSLRTARHLQPGMVLTVEPGIYFIDHLLDEALADPARASFLNREVLQRFRGFGGVRIEEDVVVIDSGIELLTCVPRTVEEIEACMAGCDKAFTPFSGPK
modifications: left off: small tags and cut ends

Key:
HT29 tumors = assay: Subcutaneous HT29 tumors in SCID mice; format: in vivo, mouse; details: sc HT29 tumors
Description: SCID mice (C.B.17 SCID) were bred by the Laboratory Animal Shared Resource at Roswell Park Comprehensive Cancer Center. Male mice at 7-8 weeks of age were used. All mouse experiments were approved by the Institutional Animal Care and Use Committee at Roswell Park Comprehensive Cancer Center under protocol 1022M. We established subcutaneous tumors by inoculating 1×10^6 HCT116 cells, 4×10^6 HT29 cells, or 2×10^6 SW48 cells to the flank of each mouse in 100 μl of serum free medium. Colon patient-derived xenograft (PDX) 14650 was established from a liver metastatic lesion in a patient treated at Roswell Park Comprehensive Cancer Center. Tumor fragments (˜20 mm^3) from donor mice were implanted into the flank of each mouse subcutaneously using a trocar. Orthotopic colon tumors in mice were established by inoculating HCT116 cells stably transfected with firefly luciferase (2×10^6 cells in 50 μl of 50% serum-free medium and 50% Matrigel) to the caecum wall of each mouse. Mice in each tumor model were randomized cage-wise into treatment groups using Research Randomizer (www.randomizer.org). Subcutaneous tumor volume was measured using length ×width^2÷2. Tumor volume was measured three times each week. Orthotopic tumor growth was monitored by bioluminescence weekly. Mice were given D-luciferin (150 mg/kg) by ip and anesthetized with isoflurane, and tumor burden was measured by bioluminescence using the IVIS Spectrum In Vivo Imaging System (PerkinElmer). Drug treatment was started when significant tumor growth was detected. EP (0.5 mg/kg) was administered to mice ip once daily. PEPD^G278D (4 mg/kg) was administered to mice ip thrice weekly (Monday, Wednesday, Friday). Aderbasib (60 mg/kg) was administered to mice by gavage once daily. 5-FU (35 mg/kg) was administered to mice ip twice weekly (Monday and Thursday). EP, PEPD^G278D and 5-FU were administered to mice in PBS. Aderbasib was first dissolved in DMSO and then diluted by PBS (final 5% DMSO by volume). […] The mice were closely monitored for sign of adverse effects and weighed three times each week. […]

[1] = test system: HER3, MET, IGF1R, SRC, AKT, ERK, MEK; assay: Western blotting of whole cell lysates: other RTKs and downstream signaling proteins; format: cell-based, human; details: 25 nM, 48 h
Description: To prepare whole cell lysates, cells were washed with PBS twice, mixed with 1× cell lysis buffer from Cell Signaling Technology supplemented with 2 mM PMSF and a protease inhibitor cocktail from Roche Applied Science, placed on ice for 10 min, sonicated at 0-4° C. to enhance cell lysis using a Branson Model 450 sonifier, and finally centrifuged at 13,000 g for 10 min at 4° C., and the supernatant fraction is collected as whole cell lysate. Tumor and samples were mixed with RIPA buffer (25 mM Tris-HCl, PH7.6, 150 mM NaCl, 1% Nonidet P-40, 1% sodium deoxycholate, and 0.1% SDS), which was supplemented with 2 mM PMSF, the protease inhibitor cocktail mentioned above, phosphatase inhibitor cocktail 2 and phosphatase inhibitor cocktail 3 from Sigma-Aldrich at 14.3 μl buffer per mg tissue, and homogenized in a Dounce homogenizer. The homogenates were cleared by centrifugation at 13,000 g for 15 min at 4° C.
Protein concentrations in all samples were measured using the BCA Assay Kit. For Western blotting, each sample was mixed with 4× loading dye, heated for 5 min at 95° C., and resolved by SDS-PAGE (8-12.5%). Proteins were transferred to polyvinylidene fluoride membrane, probed with specific antibodies, and detected using either Luminata Classico (Millipore) or Luminata Cresendo (Millipore). For IP, cell lysates (0.5 mg protein/sample) were incubated with a desired antibody overnight at 4° C., followed by incubation of 500 μl sample with 30 μl G-Sepharose beads (2 mg/ml) for 1 h at RT. The beads were washed three times with IP buffer, suspended in 2× SDS loading buffer, boiled for 5 min, and analyzed by Western blotting.

SW48 tumors = assay: Subcutaneous SW48 tumors in SCID mice; format: in vivo, mouse; details: sc SW48 tumors; EP 0.5 mg/kg ip daily plus PEPD^G278D 4 mg/kg ip three times weekly, or cetuximab 15 mg/kg ip twice weekly
Description: SCID mice (C.B.17 SCID) were bred by the Laboratory Animal Shared Resource at Roswell Park Comprehensive Cancer Center. Male mice at 7-8 weeks of age were used. All mouse experiments were approved by the Institutional Animal Care and Use Committee at Roswell Park Comprehensive Cancer Center under protocol 1022M. We established subcutaneous tumors by inoculating 1×10^6 HCT116 cells, 4×10^6 HT29 cells, or 2×10^6 SW48 cells to the flank of each mouse in 100 μl of serum free medium. Colon patient-derived xenograft (PDX) 14650 was established from a liver metastatic lesion in a patient treated at Roswell Park Comprehensive Cancer Center. Tumor fragments (˜20 mm^3) from donor mice were implanted into the flank of each mouse subcutaneously using a trocar. […] Subcutaneous tumor volume was measured using length ×width^2÷2. Tumor volume was measured three times each week. Orthotopic tumor growth was monitored by bioluminescence weekly. Mice were given D-luciferin (150 mg/kg) by ip and anesthetized with isoflurane, and tumor burden was measured by bioluminescence using the IVIS Spectrum In Vivo Imaging System (PerkinElmer). Drug treatment was started when significant tumor growth was detected. […] The mice were closely monitored for sign of adverse effects and weighed three times each week. […]

RAS = RAS activity assay (Ras Activation ELISA) in cell lysates; format: cell-based, human; details: 25 nM, 48 h
Description: Ras activity in cell lysates was measured using a Ras Activation ELISA Kit from Cell Biolabs. Briefly, approximately 5×10^6 cells were mixed with 0.5 ml lysis buffer. Cell lysates were cleared by centrifugation at 14,000 g for 10 min at 4° C., and 250 μl per sample was mixed with 10 μl of 0.5 M EDTA with or without 5 μl of either 100× GTPγS or 100× GDP, which was incubated at 37° C. for 30 min with agitation and then mixed with 33 μl of 1 M MgCl2. The mixture after appropriate dilution was transferred at 100 μl per sample to a well in a 96-well plate immobilized with RAF-1 RAS-binding domain and incubated for 1 h at RT. After washing the wells 5 times with wash buffer, 100 μl of an anti-pan-RAS antibody was added to each well and incubated for 1 h at RT. After another round of wash, 100 μl of a secondary antibody-HRP conjugate was added to each well and incubated for 1 h at RT. After yet another round of wash, 100 μl of substrate solution was added to each well and incubated at RT for 20 min, followed by addition of 100 μl of stop solution to each well. Absorbance at 450 nm in each well was recorded by a Synergy 2 Multi-Mode Microplate Reader.

Molecule | tumor growth (HT29 tumors; aderbasib alone 60 mg/kg by gavage daily) | expression of other signaling proteins (HER3, MET, IGF1R, SRC, AKT, ERK) ([1]; HCT116, HT29 and SW48 cells) | phosphorylation of other signaling proteins (HER3, MET, IGF1R, SRC, AKT, ERK) ([1]; HCT116, HT29 and SW48 cells) | MEK phosphorylation ([1]; HCT116 and HT29 cells) | phosphorylation or expression of HER3, MET, IGF1R, SRC, AKT, and ERK ([1]; SW620 cells that lack EGFR and HER2) | inhibition of tumor growth at the end of treatment (SW48 tumors) [%] | tumor growth (HT29 tumors; EP plus PEPD^G278D 4 mg/kg ip three times weekly, or cetuximab 15 mg/kg ip twice weekly) | inhibition of RAS activity (RAS; HCT116 cells) [%] | inhibition of RAS activity (RAS; HT29 cells) [%] | inhibition of RAS activity (RAS; SW48 cells) [%]
COC(=O)N1CC2(CC2)C[C@H](C(=O)NO)[C@H]1C(=O)N1CC=C(c2ccccc2)CC1 [aderbasib] | ineffective | – | – | – | – | – | – | – | – | –
B1 | – | had no effect on the expression | markedly decreased their phosphorylation | markedly decreased MEK phosphorylation | had no effect | 91.5 | neither agent inhibited the growth | 73 | 75 | 75
